Data on one molecule can be found in US8173604B2, “Inhibition of Skp2-cyclin a interaction” (Albert Einstein College of Medicine of Yeshiva University, priority 2006, dated 2012).

For one assay, the target named is T1, p27-cyclin A interaction (Homo sapiens, UniProt P20248).
T1 construct: expressed in transfected cells; host or cells: 293T (cyclin A/Cdk2)
As to the kind of experiment: GST pull-down, blocking of p27-cyclin A interaction. Format: binding. The settings on record: GST-p27, myc-cyclin A/Cdk2 transfected 293T cell extracts. As to the method:
(§1) GST pull down, p27 ubiquitylation assay, and cyclin A kinase assay. GST fusion proteins were purified on GSH-beads (Amersham), which were then incubated with transfected cell extracts for 1 hour in 4° C. with rocking. The beads were washed three times with lysis buffer (25 mM Hepes pH 7.6, 100 mM KCl, 0.1 mM EDTA, 10 mM MgCl2, 0.1% NP-40, 10% glycerol, 1 mM DTT) before analysis by SDS-PAGE and Western blotting.
Skp2-cyclin A interaction and p27-cyclin A interaction can be blocked by distinct peptides. An important aspect of the RxL-1-IP interaction is that it can be blocked by a short RxL peptide (Adams et al., 1996). If the Skp2-cyclin A/Cdk2 interaction and the p27-cyclin A/Cdk2 interaction are mediated by different sequences on both sides of the interaction, as shown above, it can be predicted that the RxL peptide should not block Skp2-cyclin A interaction. […] Peptide concentrations required for their respective blocking activities were similar for RxL and 4060 peptides.
Skp2 competes with p27/p21, but not E2F1, for binding to cyclin A. Whether the apparently distinct Skp2-cyclin A interaction and p27-cyclin A interaction are competitive against each other was next evaluated. […] Whether the competition between Skp2 and p27/p21 for cyclin A binding could be observed in vivo with endogenous proteins under physiological conditions was next determined. […]

The next assay addresses T2, E2F1-cyclin A binding (Homo sapiens, UniProt P20248).
T2 construct: expressed in transfected cells; host or cells: 293T (cyclin A/Cdk2); The GST-E2F1 plasmid was a gift and the fusion was purified on GSH beads
As to the kind of experiment: GST pull-down, competition for E2F1-cyclin A binding. As to the method: as §1
Whether Skp2 competes with another RxL protein, E2F1, for cyclin A binding (Krek et al., 1994) was next determined.

The target in a further assay is T3, cyclin A/Cdk2 (Homo sapiens, UniProt P20248+P24941).
T3 construct: made in house; host or cells: insect cells (baculovirus)
As to the kind of experiment: In vitro cyclin A/Cdk2 kinase assay with purified proteins (GST-Rb-C substrate). Conditions: 80 nM protein added to p27-containing kinase reaction. The format is biochemical. As to the method:
Cyclin A/Cdk2 kinase assays were performed as described previously (Ji et al., 2004). Both immuno-purified myc-cyclin A/Cdk2 on beads and GST-purified and eluted GST-cyclin A/Cdk2 (baculovirus vectors for GST-cyclin A and Cdk2 were provided by Brian Dynlacht) were used. The amounts of purified proteins were determined by comparing them with known amounts of standard proteins in Coomassie blue stained gels. Phosphorylation of GST-Rb-C was quantified with the ImageQuant software. The Ki of various proteins was determined by non-linear least squares analysis. […] Actual amounts of proteins in 7.5×10^4 HeLa cells were then determined (for example, the amounts of p27, Skp2, and cyclin A in 7.5×10^4 HeLa cells were determined to be about 0.1, 0.2, and 0.1 pmoles, respectively, at 14 hours post-replating; and about 0.01, 0.1, and 1.0 pmoles, respectively, at 19 hours post-replating).
For kinase reactions, insect cell-produced and purified GST-cyclin A/Cdk2 was used at a concentration of ˜3 nM, which was the lowest concentration that yielded readily detectible phosphorylation of GST-Rb-C here. […] Phosphorylation of Rb-C was measured and plotted, and the Ki of these various proteins were determined by non-linear least squares analysis (FIG. 7F). […]
It was then determined whether the 4060 peptide could prevent Skp2N from protecting cyclin A/Cdk2 from inhibition by p27. […]

In assay [1] the target is T4, GST-p21 binding to cyclin A/Cdk2 (Homo sapiens, UniProt P20248).
T4 construct: expressed in transfected cells; host or cells: 293T (cyclin A/Cdk2); The GST-p21 plasmid was a gift and the fusion was purified on GSH beads
Nature of the assay: GST pull-down, competition with GST-p21 for binding to cyclin A/Cdk2. Conditions: increasing amounts of Skp2N. As to the method:
as §1
Skp2 competes with p27/p21, but not E2F1, for binding to cyclin A. Whether the apparently distinct Skp2-cyclin A interaction and p27-cyclin A interaction are competitive against each other was next evaluated. […] Skp2N also competed with GST-p21 for binding to cyclin A/Cdk2 (FIG. 6A right). Whether the competition between Skp2 and p27/p21 for cyclin A binding could be observed in vivo with endogenous proteins under physiological conditions was next determined. Since abundant amounts of cyclin A are already bound by Skp2 and very little is bound by p27 or p21 in various cell lines (unpublished results), this issue was addressed from the other direction of competition by testing whether p27/p21 could compete Skp2 away from cyclin A. For this purpose, we treated U2OS cells with actinomycin D to activate p53, which led to a significant increase in p21 protein levels.

B1: Skp2N: Skp2 N-terminus (N terminal 100 residues), GST cleaved (protein)
chain: MHVFKTPGPADAMHRKHLQEIPDLSSNVATSFTWGWDSSKTSELLSGMGVSALEKEEPDSENIPQELLSNLGHPESPPRKRLKSKGSDKDFVIVRRPKLN
modifications: left off: a dimerising Fc or GST
notes: Skp2 N-terminus (N terminal 100 residues), GST cleaved
For B1, the “Blocking of p27-cyclin A interaction” value in the assay with p27-cyclin A interaction was “progressively diminished”. The “Effect on E2F1-cyclin A binding” value with E2F1-cyclin A binding is listed as “did not affect”. In the assay with cyclin A/Cdk2, the “Protection of cyclin A/Cdk2 from inhibition by p27” value is “completely reversed”. Besides, the “Competition with GST-p21 for binding to cyclin A/Cdk2” value in assay [1] was “competed”.
